± gives the standard error. For part of these data: This sample holds only a part of the variants without activity.
B1: glmS ribozyme (parent)
chain: AUAAAAGCGCCAGAACUACAGAAAUGUAGUUGACGAGGAGGAGGUUUAUCGAAUUUUCGGCGGAUGCCUCCAAA

Legend:
Settings in all cases: with glucosamine-6-phosphate
glucosamine-6-phosphate [1] = variants of: B1; assay: kcat; higher = faster cleavage; RNA array
How it was run: (§1)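 The measurements used barcoded ribozyme variants on sequenced MiSeq chips, transcribed in situ by E. coli RNA polymerase and tracked at 37 °C with a hybridised Cy3 probe. Glucosamine-6-phosphate, 40 μM to 10 mM in HEPES/KCl/Mg(OAc)2 buffer, was flowed in while tiles were imaged over ~14 h. Baseline-normalised signals, also normalised to non-cleaving reference variants, gave per-tile medians that were fit to one- or two-exponential decays for kobs. kcat and KM resulted from weighted Michaelis–Menten fits across concentrations.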

glucosamine-6-phosphate [2] = variants of: B1; assay: KM; higher = weaker cofactor use; RNA array
How it was run: as §1

glucosamine-6-phosphate [3] = variants of: B1; assay: self-cleavage kobs at 40 uM GlcN6P; higher = faster cleavage; RNA array
How it was run: as §1

glucosamine-6-phosphate [4] = variants of: B1; assay: self-cleavage kobs at 160 uM GlcN6P; higher = faster cleavage; RNA array
How it was run: as §1

glucosamine-6-phosphate [5] = variants of: B1; assay: self-cleavage kobs at 640 uM GlcN6P; higher = faster cleavage; RNA array
How it was run: as §1

glucosamine-6-phosphate [6] = variants of: B1; assay: self-cleavage kobs at 2500 uM GlcN6P; higher = faster cleavage; RNA array
How it was run: as §1

glucosamine-6-phosphate [7] = variants of: B1; assay: self-cleavage kobs at 10000 uM GlcN6P; higher = faster cleavage; RNA array
How it was run: as §1

Row | Variant | kcat (glucosamine-6-phosphate [1]) [s⁻¹] | KM (glucosamine-6-phosphate [2]) [µM] | self-cleavage kobs at 40 uM GlcN6P (glucosamine-6-phosphate [3]) [s⁻¹] | self-cleavage kobs at 160 uM GlcN6P (glucosamine-6-phosphate [4]) [s⁻¹] | self-cleavage kobs at 640 uM GlcN6P (glucosamine-6-phosphate [5]) [s⁻¹] | self-cleavage kobs at 2500 uM GlcN6P (glucosamine-6-phosphate [6]) [s⁻¹] | self-cleavage kobs at 10000 uM GlcN6P (glucosamine-6-phosphate [7]) [s⁻¹]
1 | A42G A53C | 0.00933 ± 0.0027 | 1540 ± 610 | 0.000286 ± 5.1e-05 | 0.000666 ± 0.00018 | 0.00271 ± 0.00065 | 0.0112 ± 0.0032 | 0.0076 ± 0.0015
2 | A12G U56A | 0.00105 ± 0.00021 | 7960 ± 2300 |  | 4.26e-05 ± 1.7e-05 | 7.85e-05 ± 1.1e-05 | 0.000221 ± 4.8e-05 | 0.000592 ± 6.2e-05
3 | A6U U56A | 0.000103 ± 7e-06 | 1590 ± 350 |  |  | 3.39e-05 ± 1e-05 | 5.83e-05 ± 9e-06 | 9.06e-05 ± 9.5e-06
4 | C61G C71U | < 1e-05 |  | < 1e-05 |  |  |  | < 1e-05
5 | U31A G40A | 0.00231 ± 0.00021 | 1250 ± 170 | 7.32e-05 ± 1.2e-05 | 0.000266 ± 0.00011 | 0.000717 ± 0.00016 | 0.00206 ± 0.00066 | 0.00201 ± 0.00033
6 | G32C C58G | 8.83e-05 ± 1.4e-05 | 2580 ± 1100 |  |  |  | 4.79e-05 ± 7.8e-06 | 6.81e-05 ± 9.4e-06
7 | U54G | 0.0504 ± 0.0099 | 1870 ± 470 | 0.00117 ± 3.8e-05 | 0.00365 ± 0.00023 | 0.0116 ± 0.00052 | 0.0251 ± 0.0014 | 0.0511 ± 0.0026
8 | A12C A53U | 0.015 ± 0.0038 | 2160 ± 740 | 0.000376 ± 4.9e-05 | 0.000867 ± 0.00013 | 0.00317 ± 0.00041 | 0.0103 ± 0.0019 | 0.0121 ± 0.0016
9 | A15G A39G | 0.024 ± 0.0095 |  | 0.0013 ± 0.00018 | 0.00251 ± 0.00078 | 0.0174 ± 0.0035 | 0.037 ± 0.017 | 0.0199 ± 0.0048
10 | A15G U46C | 0.00378 ± 0.0014 | 1440 ± 680 | 0.000112 ± 2.9e-05 | 0.000465 ± 0.00016 | 0.000897 ± 0.00029 |  | 0.00388 ± 0.0013
11 | G44A U55G | 0.000367 ± 0.00015 |  |  |  | 0.000141 ± 3.3e-05 | 0.000228 ± 4.2e-05 | 
12 | A12G G38U A39U | < 1e-05 |  | < 1e-05 |  | < 1e-05 |  | 
13 | A42G U57G | 4.9e-05 ± 1.3e-06 | 514 ± 77 | < 1e-05 | < 1e-05 |  | 4.17e-05 ± 1.4e-05 | 4.59e-05 ± 1.4e-05
14 | C10U U47C U56G C68U U69A | < 1e-05 | 429 ± 190 |  |  | < 1e-05 |  | < 1e-05
15 | C11A A36U G37C | < 1e-05 |  | < 1e-05 |  |  |  | 
16 | G40C U47C | 0.000914 ± 0.0001 | 2020 ± 360 |  | 7.4e-05 ± 2e-05 | 0.000201 ± 4.4e-05 | 0.000591 ± 0.00016 | 0.000741 ± 0.00015
17 | C68U U69A | 1.58e-05 ± 6.2e-06 |  | < 1e-05 |  |  |  | 
18 | C11G G63A C68U | < 1e-05 |  |  |  |  |  | 
19 | A6U C67A | 7.39e-05 ± 6.8e-06 |  |  |  | 6.68e-05 ± 1.7e-05 | 5.62e-05 ± 1.1e-05 | 7.43e-05 ± 7.2e-06
20 | A6U U69C | 8.65e-05 ± 8.1e-06 |  |  |  | 6.1e-05 ± 2.4e-05 | 8.15e-05 ± 2.4e-05 | 7.96e-05 ± 1.8e-05
21 | G13C A48G | < 1e-05 |  |  |  |  | < 1e-05 | < 1e-05
22 | G40A U54C | 0.00522 ± 0.00053 | 908 ± 140 | 0.000248 ± 5.6e-05 | 0.000724 ± 0.00016 | 0.00211 ± 0.0003 | 0.00449 ± 0.0013 | 0.00467 ± 0.0012
23 | G51A A53G | 1.13e-05 ± 5.2e-06 |  |  |  |  |  | 
24 | A48U U56C | 6.46e-05 ± 1e-05 |  |  | < 1e-05 |  | 4.13e-05 ± 1.7e-05 | 5.09e-05 ± 7.6e-06
25 | A6U C16U | 0.000238 ± 2.8e-05 | 1970 ± 520 |  | 2.54e-05 ± 9.5e-06 | 6.36e-05 ± 7.9e-06 | 0.000118 ± 1.2e-05 | 0.00021 ± 1.7e-05
26 | G29A U57A | 4e-05 ± 1.6e-06 | 877 ± 180 |  |  |  |  | 3.64e-05 ± 1.7e-05
27 | C61G C67U | 2.12e-05 ± 5.2e-06 |  |  |  |  |  | 
28 | A15G U65G | 0.0045 ± 0.0017 | 4200 ± 2000 | 4.05e-05 ± 1e-05 | 0.000133 ± 3.7e-05 | 0.000664 ± 0.00013 | 0.00285 ± 0.0006 | 0.00279 ± 0.00062
29 | G40U C71G | 0.00552 ± 0.00087 | 1200 ± 280 | 0.000211 ± 2.1e-05 | 0.000498 ± 8.3e-05 | 0.00193 ± 0.00025 | 0.00351 ± 0.00048 | 0.00519 ± 0.00058

— the supplement of paper PMC7125110
